B1: CLCN6 (parent)
chain: FQSISLRKIQFNFPYFRSDRDKRD
B2: PLAGL1 (parent)
chain: DPNKMAFGCEECGKKYNTMLGYKR

Variants of: B1
Experiment: protein stability index of a GFP-peptide fusion (GPS, HEK-293T) (PSI 1-6); higher = more stable
Settings: c terminus: a fixed tail appended
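Note: lentivirally expressed fusions sorted by FACS into six bins by GFP to DsRed ratio, PSI derived from sequencing read proportions per bin multiplied by bin number.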

Protein stability index of substitutions, site by site:
D21: H 2.02 | C 2.4 | Y 1.22 | V 2.94 | M 2.08 | G 1.27 | A 3.22 | R 1.19 | K 1.31 | S 3.06 | F 3.21 | P 2.61 | E 1.1
K22: I 1.81 | P 1.66 | H 1.34 | W 2.09 | A 1.29 | D 1.92 | Q 1.68 | M 1.82 | L 1.71 | C 3.83 | R 1.35 | T 2.17 | Y 2.27 | S 2.72
R20: L 1.22 | E 2.73 | S 2.2 | C 1.23 | N 1.72 | T 1.25 | W 3.61 | P 1.45 | A 2.17 | Q 3.07 | M 1.72 | H 1.72 | K 1.43 | V 1.73
F16: E 2.22 | N 2.68 | Q 2.39 | D 2.74 | A 1.68 | P 1.47 | L 1.44 | S 1.83 | H 2.3 | T 1.9 | W 2.08 | I 2.18 | C 1.52
Y15: M 1.53 | Q 2.56 | W 1.44 | V 2.22 | P 2.41 | N 2.78 | H 2.78 | S 2.58 | K 2 | I 2.15 | T 2.75
S18: N 2.62 | M 1.38 | H 1.93 | P 1.6 | T 2.31 | D 1.71 | A 1.99 | Y 2.35 | V 1.25 | R 2.16 | Q 1.52
R17: T 1.71 | S 1.5 | Q 2.02 | D 3.03 | Y 1.22 | F 1.52 | C 1.11 | P 2.28 | M 1.93 | N 2.21 | K 1.76 | V 2.15 | G 1.71 | I 1.56 | E 2.26 | H 2.35
R23: C 1.67 | I 1.69 | E 1.86 | A 1.73 | D 1.72 | Q 2.39 | T 2.25 | N 1.81 | L 1.35 | M 1.38 | G 2.85 | V 1.88 | S 1.29 | K 1.91 | Y 1.28 | P 3.46 | W 1.26 | H 1.99 | F 2.01
D19: I 2 | P 2.16 | M 2.01 | A 1.67 | F 1.68 | Q 1.85 | S 1.33 | L 1.47 | R 1.9 | K 1.46 | T 2.21
D24: T 2.21 | Y 1.58 | K 1.37 | L 2 | F 1.93 | P 2 | E 1.93 | A 1.68 | I 2.59 | C 2.75 | S 2.23 | V 1.31 | Q 1.37 | M 1.66 | H 2.1 | N 1.49 | R 1.94

Variants of: B2
Experiment: as above
Settings: c terminus: a fixed tail appended

Protein stability index: each site, then its substitutions
P2: F 2.73 | H 1.86 | N 2.12 | E 2.04 | C 2.28 | K 2.57 | I 1.88 | M 3.12 | A 2.26 | G 2.05 | D 2.54 | L 2.15
D1: N 3.64 | I 2.16 | R 1.8 | V 2.7 | L 2.34 | C 2.18 | K 2.09 | H 2.05 | S 2.05 | E 1.77 | P 2.08 | G 2.22 | A 1.94 | Q 2.05 | T 2.13 | M 2.26

From the supplement of paper PMC10567573
